Source: PMC12804668

Target: Ec78 PtuA ATPase (E. coli ECONIH5)
Assay: cryo-EM structure

Substance Ec78 PtuA ATPase (enzyme) has a stoichiometry N of 4.
